# Data published in patent publication US20210261685A1 (Alector, published 2021).
# Substitutions are numbered along the chain they refer to.
# T1: murine MerTK extracellular domain (ECD), recombinant (mouse, UniProt Q60805 19-497)
# T1 construct: also called moMerTK; mouse MerTK; not shown: polyHis tag or TEVS/Thrombin/murine IgG2a Fc tag
# T1 sequence: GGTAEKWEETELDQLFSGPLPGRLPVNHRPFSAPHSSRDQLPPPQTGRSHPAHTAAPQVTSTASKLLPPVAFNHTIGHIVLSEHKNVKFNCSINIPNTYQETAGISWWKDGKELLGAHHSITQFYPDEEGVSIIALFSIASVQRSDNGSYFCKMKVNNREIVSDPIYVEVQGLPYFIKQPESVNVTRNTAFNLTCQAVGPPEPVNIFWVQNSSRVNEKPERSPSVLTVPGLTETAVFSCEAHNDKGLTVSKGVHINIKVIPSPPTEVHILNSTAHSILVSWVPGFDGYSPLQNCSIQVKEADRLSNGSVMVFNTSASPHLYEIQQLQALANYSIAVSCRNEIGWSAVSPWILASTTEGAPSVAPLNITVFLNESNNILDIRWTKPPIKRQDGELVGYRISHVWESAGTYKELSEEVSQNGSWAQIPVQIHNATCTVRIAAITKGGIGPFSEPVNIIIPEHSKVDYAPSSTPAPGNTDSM
# T2: human MerTK extracellular domain (ECD), recombinant (human, UniProt Q12866 21-505)
# T2 construct: also called huMerTK; not shown: polyHis tag or TEVS/Thrombin/murine IgG2a Fc tag
# T2 sequence: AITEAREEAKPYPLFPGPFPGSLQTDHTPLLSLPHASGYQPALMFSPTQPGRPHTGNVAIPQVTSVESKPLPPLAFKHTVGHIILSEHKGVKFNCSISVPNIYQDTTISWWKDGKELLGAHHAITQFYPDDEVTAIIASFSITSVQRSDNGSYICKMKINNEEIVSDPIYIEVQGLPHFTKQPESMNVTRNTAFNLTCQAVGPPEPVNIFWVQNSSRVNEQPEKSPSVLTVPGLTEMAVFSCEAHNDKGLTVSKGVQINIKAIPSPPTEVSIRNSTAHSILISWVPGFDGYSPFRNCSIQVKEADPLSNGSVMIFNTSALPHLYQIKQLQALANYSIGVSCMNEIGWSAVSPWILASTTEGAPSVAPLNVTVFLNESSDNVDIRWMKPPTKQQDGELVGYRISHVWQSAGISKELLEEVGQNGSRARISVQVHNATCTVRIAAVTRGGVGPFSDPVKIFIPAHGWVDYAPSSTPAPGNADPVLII
# T3: cyno MerTK extracellular domain (ECD), recombinant (cynomolgus monkey, UniProt Q12866 21-505 (human entry))
# T3 construct: also called cynomolgus MerTK; not shown: polyHis tag or TEVS/Thrombin/murine IgG2a Fc tag
# T3 chain: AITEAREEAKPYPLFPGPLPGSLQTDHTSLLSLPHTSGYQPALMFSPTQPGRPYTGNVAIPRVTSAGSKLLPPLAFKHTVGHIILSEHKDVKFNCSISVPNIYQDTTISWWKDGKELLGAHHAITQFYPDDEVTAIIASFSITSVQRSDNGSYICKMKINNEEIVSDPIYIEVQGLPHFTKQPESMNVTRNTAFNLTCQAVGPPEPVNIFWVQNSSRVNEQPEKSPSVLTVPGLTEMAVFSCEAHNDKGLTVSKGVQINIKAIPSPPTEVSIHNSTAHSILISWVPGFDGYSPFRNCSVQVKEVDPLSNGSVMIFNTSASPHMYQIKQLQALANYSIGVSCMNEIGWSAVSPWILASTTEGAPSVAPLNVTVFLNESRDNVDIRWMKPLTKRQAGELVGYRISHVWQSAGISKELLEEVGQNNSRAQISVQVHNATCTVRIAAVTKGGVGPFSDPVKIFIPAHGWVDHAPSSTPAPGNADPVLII
# B1: MTK-33.13 (antibody, human IgG1, V domains shown)
# VH: QVQLVQSGAEVKKPGASVKVSCKASGYTFTSYWMHWVRQAPGQGLEWIGVIDPSDNYINYNQKFQGRVTMTRDTSTSTVYMELSSLRSEDTAVYYCAREAGTRGYFDYWGQGTLVTVSS
# VL: DIQMTQSPSSLSASVGDRVTITCQASRSVSNTVAWYQQKPGKAPKLLIYYASNRYTGVPSRFSGSGSGTDFTFTISSLQPEDIATYYCQQDYRSPFTFGQGTKLEIK
# B2: MTK-33.21 (antibody, human IgG1, V domains shown)
# VH: B1 VH with Q65R
# VL: B1 VL with D17G, A51V, Y92M
# B3: MTK-33.17 (antibody, human IgG1, V domains shown)
# VH: B1 VH with D52A, Q65R
# VL: B1 VL with Y92M
# B4: MTK-33.16 (antibody, human IgG1, V domains shown)
# VH: B1 VH with G26W
# VL: B1 VL
# B5: MTK-33.15 (antibody, human IgG1, V domains shown)
# VH: B1 VH with G66V
# VL: B1 VL with Y92M
# B6: MTK-33.12 (antibody, V domains shown)
# VH: B1 VH with T30V, Q65R
# VL: B1 VL with R27Q, Q89R, Y92T, I106L
# B7: MTK-33.11 (antibody, human IgG1, V domains shown)
# VH: B1 VH with G101W
# VL: B1 VL with S30R
# B8: MTK-33.7 (antibody, human IgG1, V domains shown)
# VH: B1 VH with Q62A
# VL: B1 VL with Q24G, R27Q
# B9: MTK-33.5 (antibody, human IgG1, V domains shown)
# VH: B1 VH with K23M, T30G
# VL: B1 VL with R27Q, Y55E, A84G
# B10: MTK-33.8 (antibody, human IgG1, V domains shown)
# VH: B1 VH with G101W, D107N
# VL: B1 VL with R27Q, N31R
# B11: MTK-33.10 (antibody, V domains shown)
# VH: B1 VH with G26S, T28S, Q65R
# VL: B1 VL with S26G, R27Q
# B12: MTK-33.14 (antibody, human IgG1, V domains shown)
# VH: B1 VH with Q65R
# VL: B1 VL with R27Q
# B13: MTK-29.11 (antibody, human IgG1, V domains shown)
# VH: QVQLVQSGSELKKPGASVKVSCKASSYTFTTYGMSWVRQAPGQGLEWMGWINTDSGVPTYTDDFKGRFVFSLDTSVSTAYLQISSLKAEDTAVYYCARYTNYGVFDYWGQGTLVTVSS
# VL: EIVLTQSPATLSLSPGERATLSCRASSSVGYMHWYQQKPGQAPRLLIYATSNLASGIPARFSGSGSGTDFTLTISRLEPEDFAVYYCQQWGSLPFTFGGGTKLEIK
# B14: MTK-29.18 (antibody, human IgG1, V domains shown)
# VH: B13 VH with S26G, T28I, T31S, M34L, I51V, D54Y
# VL: B13 VL with S28T
# Target: T1, murine MerTK extracellular domain …
# Assay: SPR, Carterra LSA, antibody immobilised
# Protocol: (§1) Binding kinetics of humanized and affinity-matured anti-MerTK antibodies of the present disclosure to human, murine, and cynomolgus MerTK proteins were evaluated as follows. Briefly, anti-MerTK antibodies were prepared by diluting to 10 μg/ml in 10 mM Acetate, pH 4.25 (Carterra, Salt Lake City, Utah), at 300 μl/well. A HC200M sensor chip (Carterra) was activated using the single channel flow cell with a 7-minute injection of a 1:1:1 mixture of 100 mM MES pH 5.5, 100 mM sulfo-NHS, 400 mM EDC (all reconstituted in MES pH 5.5; 100 μl of each mixed in vial immediately before running assay). After switching to the multi-channel array flow cell, the antibodies were injected over the activated chip in a 96-spot array for 15 minutes. The remaining unconjugated active groups on the chip were then blocked by injecting 1M Ethanolamine pH 8.5 (Carterra) for 7 minutes using the single channel flow cell.
# (§2) Estimates of affinity were generated by injecting each analyte over the entire antibody array using the single channel flow cell. MerTK analytes were diluted to 33.3, 100, and 300 nM in running buffer, and injected in serial from lowest to highest concentration without regeneration. Two buffer blanks were run between each series (one species per series). Data were processed and analyzed using NextGenKIT high-throughput kinetics analysis software (Carterra). In these experiments, the anti-MerTK antibodies were human IgG1 isotype containing the Fc variant LALAPS.
# (§3) The equilibrium dissociation constants (KD) were then calculated from the fitted association and dissociation rate constants (k-on and k-off) for anti-MerTK antibodies of the present disclosure.
row,Kd,Binder
1,0.225 µM,B1
2,0.044 µM,B2
3,0.505 µM,B3
4,0.225 µM,B4
5,0.105 µM,B5
6,0.23 µM,B6
7,0.115 µM,B7
8,0.8 µM,B8
9,0.14 µM,B9
10,0.465 µM,B10
11,0.15 µM,B11
12,0.275 µM,B12
13,0.059 µM,B13
14,0.14 µM,B14

# Target: T2, human MerTK extracellular domain (ECD), …
# Assay: SPR, Carterra LSA, antibody immobilised
# Protocol: as §1, §2, §3
row,Kd,Binder
1,0.02 µM,B1
2,0.0004 µM,B2
3,0.0204 µM,B3
4,0.0109 µM,B4
5,0.0046 µM,B5
6,0.0086 µM,B6
7,0.011 µM,B7
8,0.078 µM,B8
9,0.028 µM,B9
10,0.041 µM,B10
11,0.041 µM,B11
12,0.0305 µM,B12
13,0.0021 µM,B13
14,0.0047 µM,B14

# Target: T3, cyno MerTK extracellular domain (ECD), …
# Assay: SPR, Carterra LSA, antibody immobilised
# Protocol: as §1, §2, §3
row,Kd,Binder
1,0.018 µM,B1
2,0.0003 µM,B2
3,0.0199 µM,B3
4,0.0101 µM,B4
5,0.004 µM,B5
6,0.0079 µM,B6
7,0.0101 µM,B7
8,0.078 µM,B8
9,0.026 µM,B9
10,0.041 µM,B10
11,0.038 µM,B11
12,0.029 µM,B12
13,0.0024 µM,B13
14,0.0049 µM,B14
